Laboratory results reported in patent US20040253248A1.

Biological target: rat neurokinin-1 receptor (NK-1R) (rat) (UniProt P14600)
Sequence (P14600 whole entry): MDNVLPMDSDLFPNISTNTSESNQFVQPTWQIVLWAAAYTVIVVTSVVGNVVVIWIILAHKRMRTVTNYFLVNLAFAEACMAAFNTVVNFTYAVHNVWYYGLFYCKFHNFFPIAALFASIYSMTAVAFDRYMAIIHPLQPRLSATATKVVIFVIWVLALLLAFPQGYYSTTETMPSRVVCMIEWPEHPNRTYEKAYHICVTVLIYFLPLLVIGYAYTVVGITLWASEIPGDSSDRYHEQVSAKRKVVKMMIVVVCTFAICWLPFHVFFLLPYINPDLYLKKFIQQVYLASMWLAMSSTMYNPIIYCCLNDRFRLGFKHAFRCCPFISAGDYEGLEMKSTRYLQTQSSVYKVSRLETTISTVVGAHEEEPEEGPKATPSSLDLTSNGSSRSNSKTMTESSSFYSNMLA

Q: Which IC50 (read off the curve) does the source give for “[Sar9, Met (02)11]-SP-SAP (from UniProt P20656 25-277)” here?
A: 0.2 nM
